# Test results reported in the RNAGym collection of RNA variant scans (doi:10.1021/acssynbio.7b00057).
# B1: Pistol ribozyme (parent)
# chain: GGGUCGUUGUUCCAUAAUCGCGUGGAUAUGGCACGCAAGUUUCUACCGGGCACCGUAAAUGUCCGACUGGAGCCGUUCGGGCGGCUAUAAACAGACCUCAGGCCCGAAGCGUGGCGGCACCUGCCGCCGGUGGUAAAAAAGAUCGGAAGAGCACACGUCU
# Variants of: B1
# Test: aptazyme ON/OFF ratio, guanine; higher = stronger switching; co-transcriptional cleavage with and without guanine
row,Variant,aptazyme ON/OFF ratio
1,U7G U8C G9C U10C U11C C13A,1.04
2,U7C U8G G9U U10A U11G C13G,1.04
3,U7G U8C G9C U10A U11G C13A,1.14
4,U7C U8C G9A U11A C12A C13U,1.38
5,U7C U8G G9A U10C U11A C13U,1.09
6,U7C G9C U10C U11C,0.99
7,U7C U10C C13G,1.28
8,U7C G9U U10A U11A C12G C13U,1.2
9,U7A U8A G9C C12U C13U,1.42
10,U8C G9A U11A,1.25
11,U7A G9U U10C U11C C12U C13G,1.02
12,U7G U8A G9A U10C U11C C12U C13G,1.02
13,U7A U8C G9A U10G C12A C13U,1.19
14,U7G U8C G9A U11G C12G C13G,1.08
15,U7C G9U U10G U11G C12A C13G,1.1
16,U7G U8G G9A U10C C12A C13U,1.32
17,U7A U8A G9C U11G C12U C13G,1.23
18,U7C U8G G9C U10A U11A C12U C13U,1.24
19,U7G U8G G9C U10C C12G C13A,1.22
20,U8A G9U U10G U11C C12G C13G,1.07
21,U7A G9A U11C C12G C13G,1.17

row,Variant,aptazyme ON/OFF ratio
1,U7C G9A U10G U11C C12G C13A,1.19
2,U7G U8A G9A U10C U11C C12A C13U,1.08
3,U7G U8G G9U U10C U11G C12A C13A,1.12
4,U7A U8A G9C U11G C13G,1.1
5,G9U U10A U11G C12G,2.12
6,U7G U8G G9C C12G C13G,1.13
7,U7A U8A G9U U10C U11G C12A,1.04
8,U7C G9U U11A C12A C13U,1.29
9,U7G G9A U11C C12G C13G,1.07
10,U7A U8C U10A U11C C12G C13U,1.13
11,U7C G9U U11G C13A,1.21
12,U7G U8C G9U U10A U11C C13U,1.18
13,U7C G9C U10A C13G,1.05
14,U8C G9A U10A U11C C12G,1.29
15,U7A G9C U10C C12A C13U,1.04
16,U7A U8A U10G U11C C12G C13U,1.39
17,U7C U8A U10C U11C C12A C13G,1.27
18,U8A U10C C12A C13G,1.11
19,U7A U8G U11G C12U C13G,1.29
20,U7A U8G G9A U10A C12G,1.53
21,U8G G9A U11G C13A,1.07

row,Variant,aptazyme ON/OFF ratio
1,U7A U8G G9U U10A U11G C12A C13A,1.11
2,G9C U10C U11G C12A,1.03
3,U8A G9A C13U,1.23
4,U7A U8A G9C U11G C12G,1.4
5,U7G U8A G9U U10A C12A C13A,1.04
6,U8A G9C U10A U11G C12G C13U,1.21
7,U7A G9C U10G U11A C12U C13G,1.07
8,U7C U8C G9A U10A U11C C12G,1.23
9,U8G G9C C12A C13G,1.03
10,U7C U10G U11G C12U C13G,1.1
11,U8C G9A U10G U11G C12U C13G,1.1
12,G9A U10G U11C C12A C13A,1.18
13,U7C U8A U10A U11G C12G C13G,1.13
14,G9A U10G U11A C12G C13A,1.02
15,U7A U8C U10G U11G C12U C13G,1.23
16,U7A G9A U10A C12U C13U,1.2
17,U10C U11C C12G C13A,1.17
18,U7A G9U U10C U11G C12A C13A,1.05
19,U7A U8C G9C U10G C12A C13A,1.06
20,U7C U8C G9A U10G U11C C12U C13U,1.26
21,U7G U8G G9A U10C U11G C12A C13A,1.11

row,Variant,aptazyme ON/OFF ratio
1,U7C U8C G9U U10A U11A,2.27
2,U7C U8C G9U U10A U11G,1.34
3,U7A U8G G9A U10A U11G C12A,1.08
4,U7G U8G G9U U11G C12G C13A,1.05
5,U7C G9C U10C U11G C12U,1.01
6,G9U U10A U11A C12U C13G,1.7
7,U7C U8G G9A U10C U11C C12G C13A,1.13
8,U7A U8C U10G U11C C12G,2.72
9,U8C G9U U10C U11A C13G,1.05
10,U7C U8G G9A U10A U11C C12U C13U,1.08
11,U8A G9A U10C U11G C12A C13G,1.23
12,U7G G9U U10A C12U,1.54
13,U7A U8G G9A U10A U11G C13A,1.13
14,U11C C12G C13A,1.46
15,U8G U10G U11C C12U C13G,1.14
16,U7C U8A G9A U10A U11A C13G,1.12
17,U7G U8C G9U U10A C12A C13G,1.17
18,U8G G9U U10A C13G,1.06
19,U7G U8G G9U U11A C12U C13U,1.23
20,U8A G9C U10A C13G,1.06
